Measured values as given in patent publication CN108610419A.
Substitutions are numbered along the chain they refer to.

B1: hu14C5B (antibody, V domains shown, not shown: a dimerising Fc or GST)
VH: EVQLVESGGGLVQPGGSLRLSCAASGYSFTMYNINWVKQAPGKGLEWIGNLDAYYGGSNYNPKFKDKATLSRDNSKNTAYLQMNSLRAEDTAVYYCTRILWSRDFYTMDYWGQGTLVTVSS
VL: DIQVTQSPSSLSASVGDRVTITCRTSQDISNYLHWYQQKPGKAPKLLIYSTSTGHSGVPSRFSGSGSGTDFTLTISSLQPEDFATYFCQQSYTLAYTFGQGTKVEIKR
B2: hu14C5B-6 (antibody, V domains shown, not shown: a dimerising Fc or GST)
VH: B1 VH with Y27F, S28T, T30S, M31L, A53P, F105Y
VL: B1 VL with G54L, A95P
B3: hu14C5B-2 (antibody, V domains shown, not shown: a dimerising Fc or GST)
VH: B1 VH with Y27F, S28T, T30S, M31L, A53P, F105Y
VL: B1 VL with G54A, A95L
B4: hu14C5B-5 (antibody, human IgG1, kappa, V domains shown)
VH: B1 VH with Y27F, S28T, T30S, M31A, A53P, F105Y
VL: B1 VL with G54L, A95P
B5: hu14C5B-1 (antibody, V domains shown, not shown: a dimerising Fc or GST)
VH: B1 VH with Y27F, S28T, T30S, M31A, A53P, F105Y
VL: B1 VL with G54A, A95L
B6: m14C5B (antibody, mouse IgG1, V domains shown)
VH: EVQLQQSGPELEKPGASVKISCRTSGYSFTMYNINWVKQTNGKSLEWIGNLDAYYGGSNYNPKFKDKATLTVDISSNTAFMQLWSLTSEDSAVYYCTRILWSRDFYTMDYWGRGTSVTVSS
VL: DIQVTQTSSSLSASLGDRVTITCRTSQDISNYLHWYQQTPDGTVKLLIYSTSTGHSGVPSRFSGSGSGTDYSLTISNLEQEDIATYFCQQSYTLAYTFGGGTKLEIKR

target: 重组人HER2蛋白的胞外区 (rHER2-ECD) (human) (UniProt P04626); assay: SPR (BIACORE3000), rHER2-ECD coupled to CM5 chip, antibody in flow, 25 °C

Kd [nM]	Binder
0.242	B1
4.62	B2
31.5	B3
0.186	B4
8.53	B5
0.295	B6
